Data on one protein can be found in article PMC7322011.

The series can be described thus: plasma membrane level, fixed-cell imaging. The settings on record: glycan lost; control: wild type.

B1: peripheral myelin protein 22 (PMP22): N41Q (protein)
parent chain: MLLLLLSIIVLHVAVLVLLFVSTIVSQWIVGNGHATDLWQNCSTSSSGNVHHCFSSSPNEWLQSVQATMILSIIFSILSLFLFFCQLFTLTKGGRFYITGIFQILAGLCVMSAAAIYTVRHPEWHLNSDYSYGFAYILAWVAFPLALLSGVIYVILRKRE
For the protein B1, the localisation_or_trafficking result is on record as “increases”.
